Columns and labels:
Assay type in all cases: cell-based, human
DOHH2 cells = experiment: Alamar Blue cytotoxicity study; conditions: Homo sapiens, DOHH-2; DOHH2, 72 h incubation after seeding; read-out: IC50
Protocol: (§1) Cells were treated with either Humalutin, olaparib or a combination of both and seeded into 96 well-plates. At each time point after treatment, cells were incubated with Alamar Blue (Thermo Fisher, DALL1100) for 4 hours and fluorescence measurements were performed using a multiplate reader Fluoroskan ascent FL to assess cell proliferation and viability. All experiments were done in duplicates using 2 samples in each experiment. Data were normalized to the untreated controls.
(§2) Cells were incubated with 0.25, 0.5, 1, 2.5 or 5 μg/ml of Humalutin in cell culture flasks and incubated at 37° C./5% CO2. After 18-20 hours cells were washed and resuspended in fresh medium. Cell bound activity after washing was measured using a calibrated gamma detector (Cobra II auto-gamma detector, Packard Instrument Company, Meriden, Conn., USA). Cell concentration and viability was also measured after washing using Guava ViaCount Cell Dispersal Reagent for Flow Cytometry (Merck GaA, Darmstadt, Germany) and measured in a Guava EasyCyte 12HT (Merck KGaA, Darmstadt, Germany) to determine how well the cells survived the incubation. Cells were seeded in 96 well plates.
(§3) Cells were seeded in 96 well plates pre-coated with from 1 to 100 μM olaparib in 0.2 ml medium and incubated at 37° C./5% CO2 for 72 hours before the cytotoxic effect was measured using alamar blue cell viability assay.
(§4) Cells were incubated with either 0, 0.5 μg/ml or 1 μg/ml Humalutin and the same procedure as described before for treatment with humalutin alone and olaparib alone was followed. Concentrations of olaparib used were between 1 and 100 μM.
(§5) The Chou-Talalay model was used for synergy calculations using the Compusyn software. R (goodness of fit) was calculated for the individual treatments and should be over 0.90 in in vitro culture experiments in order to use the calculated combination index (CI). The CI is an indication of synergy: 0-0.9 is considered synergy. Synergysm grading was used as described in WO2006004917A2. […]
as §2, with “viability were” for “viability was”, “plates. Alamar blue viability measurements were performed 120 h after seeding.” for “plates.”

Granta 519 cells = experiment: Alamar Blue cytotoxicity study; conditions: Homo sapiens; Granta 519, 72 h incubation after seeding; read-out: IC50
Protocol: as §1, §2, §3, §4, §5
as §2, with “viability were” for “viability was”, “plates. Alamar blue viability measurements were performed 120 h after seeding.” for “plates.”

Rec-1 cells = experiment: Apoptosis induction (Annexin V/7-AAD, Muse flow cytometer); conditions: Rec-1, 6 MBq/mL radiolabelled mAb for 18 h, peak time 72 h
Protocol: (§6) Cells were harvested at 0, 2 h, 18 h, 1 d, 2 d, 3 d of RIT. At each time point, apoptosis was detected with […] from Merck Millipore (Annexin V Kit with 7-AAD) in the dark for 30 min at room temperature before analysis using Muse® flow cytometer

Ramos cells = experiment: as above; conditions: 6 MBq/mL radiolabelled mAb for 18 h, peak time 72 h
Protocol: as §6

[1] = system: CD133 and CD44 at the DOHH2 cell surface; experiment: Expression of stem cell markers after RIT (flow cytometry); conditions: DOHH2, 6 MBq/mL for 18 h, up to 9 days post-RIT
Protocol: Cells were harvested at 0, 2 h, 18 h and each day from 1 d to 10 d of RIT. At each time point, cells were fixed with PFA 4% for 10 minutes, washed twice with PBS and sterilely stored in PBS at 4° C. Stem cell markers were detected with anti-CD133-FITC (clone: AC133, Milteniy) and anti-CD44-APC (clone: IM7, Merck Millipore). 0.5×10^6 cells were saturated for 1 h in PBS-BSA 0.5%. Next cells were centrifuged and incubated with anti-CD133-FITC (2 μL) and anti-CD44-APC (0.125 μg) for 1 h at room temperature in the dark. Finally, cells were rinsed twice and analysed using Gallios® flow cytometer (Beckman Coulter).
For a preliminary study, investigation of the expression of CD133 and CD44 at the surface of cells treated for 18 h with 6 MBq/mL ^177Lu-lilotomab and ^177Lu-rituximab was done.

[2] = system: CDK1 and its phosphorylations, p345-Chk1, Wee-1, Myt-1, CDK7 in Rec-1 cells; experiment: Protein expression by Western blot
Protocol: Protein expression was assessed in 1×10^6 Ramos, DOHH2 or Rec-1 cells/mL grown in 12-well plates and exposed for 18 h to 0 and 6 MBq/mL of ^177Lu-lilotomab. Cells were harvested at 0, 2 h, 18 h, 1 d, 2 d and 3 d of RIT. At each time point, cells were rinsed and incubated in RIPA buffer (Santa Cruz) at 4° C. for 30 minutes. Cells were centrifuged and supernatant (containing proteins) were collected. Proteins were electrophoresed through SDS-PAGE using 12% poly-acrylamide gels and electrotransferred onto nitrocellulose membranes. Blots were incubated with anti-CDK1, anti-p-CDK1(Tyr15) (clone 10A11), anti-p-CDK1(Thr14), anti-p-CDK1(Thr161), anti-CDK7, anti-Wee-1 (clone D10D2), anti-Myt-1, anti-p-CHK1 (Ser345) and anti-human GAPDH (1/1000, Cell Signaling Technologies, Leiden, The Netherlands) primary antibodies. Blot were washed and incubated with horseradish peroxidase-conjugated anti-mouse Ig (115-036-072, Jackson ImmunoResearch) or with horseradish peroxidase-conjugated anti-rabbit Ig (7074, Cell Signaling). Signal detection of immunoblots was carried out using the enhanced chemiluminescence protocol according to the manufacturer's instructions (Clarity™ Western ECL blotting substrates, 1705061, BioRad). PXi analyser (Ozyme) was used to measure levels of protein expression.

Molecule	IC50 (DOHH2 cells) [nM]	IC50 (Granta 519 cells) [nM]	Apoptosis level (Rec-1 cells) [%]	Apoptosis level (Ramos cells) [%]	Proportion of cells expressing CD44 and CD133 [1]	Level of phosphorylated CHK1 (Ser345) ([2]; Rec-1)	Activating pThr161 CDK1 phosphorylation ([2]; Rec-1, 6 MBq/mL for 18 h)	CDK1 level ([2]; Rec-1, 6 MBq/mL for 18 h)	Expression of Myt-1 ([2]; Rec-1, 18 h after treatment)	Expression of Wee-1 ([2]; Rec-1, between 18 and 48 h)	Levels of CDK7 ([2]; Rec-1, compared with Ramos cells)
CC1(C)CCC(CN2CCN(c3ccc(C(=O)NS(=O)(=O)c4ccc(NCC5CCOCC5)c([N+](=O)[O-])c4)c(Oc4cnc5[nH]ccc5c4)c3)CC2)=C(c2ccc(Cl)cc2)C1 [venetoclax]	2980	331	–	–	–	–	–	–	–	–	–
Lutetium-177 [^177Lu]-lilotomab satetraxetan (conjugate, chains of the INN, looked up, 177Lu satetraxetan chelator conjugate) VH: EIQLQQSGPELVKPGASVKVSCKASGYSFTDYNMYWVKQSHGKSLEWIGYIDPYNGDTTYNQKFKGKATLTVDKSSSTAFIHLNSLTSEDSAVYYCARSPYGHYAMDYWGQGTSVTVSS VL: DIVMTQSHKLLSTSVGDRVSITCKASQDVSTAVDWYQQKPGQSPKLLINWASTRHTGVPDRFTGSGSGTDYTLTISSMQAEDLALYYCRQHYSTPFTFGSGTKLEIK	–	–	67±18	33±8	strongly increased	remained stable until 18 h before progressively decreasing	undetectable	quite stable	decreased	comparable in control and treated	stable or increased

— patent US20210106703A1, “RADIOIMMUNOCONJUGATES IN COMBINATION WITH OTHER DRUGS AS TREATMENT AGAINST NHL” (Nordic Nanovector ASA, priority 2017, published 2021)
